Source: patent publication US20090068207A1, “Compositions Containing Beta 2-Glycoprotein I-Derived Peptides for the Prevention and/or Treatment of Vascular Disease” (Vascular Biogenics Ltd., priority 2005, published 2009)

Tests used:
LDL-RD mice = test: Aortic sinus lesion area after nasal tolerance induction, Western diet; assay type: in vivo; details: END, intranasal 10 μg/mouse every other day for 5 days, then Western diet, mean ± S.E
Experimental: Nasal Tolerance: Nasal tolerance was induced by intranasal administration of oxidized LDL, β2GPI, β2GPI-derived peptides or HSP65, in a total volume of 10 μl PBS. Intranasal administration was performed on mildly sedated mice (12-16 weeks old), each mouse receiving 3 doses of antigen per dose, in the indicated concentrations, every other day. Atherogenesis was induced by 5 weeks of a Western diet initiated on the day following the last intranasal administration, or assessed (in Apo E KO mice) after 8 weeks on a chow diet. Controls received equal amounts of BSA and/or PBS, as indicated, in an identical regimen. Plasma was obtained for assessment of cholesterol and triglyceride levels from all mice, and the mice were sacrificed for evaluation of atherosclerosis, as described hereinbelow, after 5 weeks Western diet, or (in Apo E KO mice) after 8 weeks on a chow diet.
Assessment of Atherosclerosis: Quantification of atherosclerotic fatty streak lesions was done by calculating the lesion size in the aortic sinus as previously described (16) and by calculating the lesion size in the aorta. Briefly, after perfusion with saline Tris EDTA, the heart and the aorta were removed from the animals and the peripheral fat cleaned carefully. The upper section of the heart was embedded in OCT medium (10.24% w/w polyvinyl alcohol; 4.26% w/w polyethylene glycol; 85.50% w/w nonreactive ingredients) and frozen. Every other section (10 μm thick) throughout the aortic sinus (400 μm) was taken for analysis. The distal portion of the aortic sinus was recognized by the three valve cusps that are the junctions of the aorta to the heart. Sections were evaluated for fatty streak lesions after processing and staining with oil-red O, according to Paigen et al (Atherosclerosis, 1987; 68:231-40). Lesion areas per section were scored on a grid (17) by an observer counting unidentified, numbered specimens. The aorta was dissected from the heart and surrounding adventitious tissue was removed. Fixation of the aorta and Sudan staining of the vessels were performed as previously described (21).
Mice were bled prior to feeding (Time 0) and at the conclusion of the experiment (End) for determination of lipid profile. Atherosclerosis was assessed in heart and aorta as described above, 8 weeks after the last feeding. Mice were weighed every 2 weeks during the experiment. All mice were fed water ad libitum and a normal chow-diet containing 4.5% fat by weight (0.02% cholesterol), up to the final antigen exposure, and then a “Western” diet until sacrifice.
Thus, nasal exposure to a low dose and an exceedingly low dose of recombinant human HSP 65 were compared for their effectiveness in suppressing atherogenesis in LDL-RD mice. 58 male 12-16 week old LDL-RD mice were divided into 4 groups.

[1] = system: inguinal lymph node cells; test: Lymph node cell proliferation (stimulation index) to sensitizing antigen β2GPI after mucosal administration; assay type: in vivo, mice; details: then immunization with human β2GPI, LDL-RD mice
Experimental: Immunization: Subcutaneous immunization with human β2GPI: Human β2GPI was prepared from human plasma pool as described above. For immunization, human β2GPI was dissolved in PBS and mixed with equal volumes of Freund's incomplete adjuvant. Immunizations were performed by single subcutaneous injection of 10 μg antigen/mouse in 0.1 ml volume. Three days following the last mucosal administration of plaque associated molecules the mice received one immunization, and were sacrificed 10 days post immunization.
Proliferation assays: Mice were exposed to the tested antigen as described for assessment of atherosclerosis, and then immunized (one to three days following the last exposure) subcutaneously with 10 μg β2GPI in 0.1 ml PBS, prepared from purified human β2GPI as described above.
Proliferation was assayed ten days after immunization with the β2GPI as follows: Draining inguinal lymph nodes were prepared by mashing the tissues on 100 mesh screens. Red blood cells were lysed with cold sterile double distilled water (6 ml) for 30 seconds and 2 ml of NaCl 3.5% was added. Incomplete medium was added (10 ml), cells were centrifuged for 7 min at 1,700 rpm, resuspended in RPMI medium and counted in a haemocytometer at 1:20 dilution (10 μl cells+190 μl Trypan Blue). Proliferation was measured by the incorporation of [^3H] Thymidine into DNA in triplicate samples of 100 μl of the packed cells (1×10^6 cells/ml) in a 96 well microtiter plate. […] Thymidine (0.5 μCi/well) was added. After an additional 12-24 hours of incubation the cells were harvested and transferred to glass fiber filters using a cell harvester (Brandel) and counted using β-counter (Lumitron). Proliferation was measured by the incorporation of [^3H] thymidine into DNA during the final 12 h of incubation. The results are expressed as the stimulation index (S.I.): the ratio of the mean radioactivity (cpm) of the antigen to the mean background (cpm) obtained in the absence of the antigen. Standard deviation was always <10% of the mean cpm.
Tolerance induced by mucosal exposure to plaque-associated molecules may be mediated by suppression of specific immune responses to antigenic portions (epitopes) of these plaque associated molecules. Lymphocyte proliferation in response to mucosal (nasal and oral) exposure to human β2GPI was measured in […]. 9 male, 5 week old LDL-RD mice were divided into 3 groups. In group A (n=3) oral tolerance was induced with 100 μg/mouse β2GPI suspended in 0.1 ml PBS, administered by gavage, as described above, every other day for 5 days. In group B (n=3) nasal tolerance was induced with 10 μg/mouse β2GPI suspended in 10 μl PBS, administered intranasally as described above, every other day for 5 days. The mice in group C (n=3) received oral administration of 200 μl PBS every other day for 5 days. Immune reactivity was stimulated in all mice by immunization with human β2GPI as described above in the Materials and Methods section, one day after the last feeding. Ten days after the immunization lymph nodes were collected for assay of proliferation (as expressed in the Stimulation Index SI). All mice were fed normal chow-diet containing 4.5% fat by weight (0.02% cholesterol) and water ad libitum.

ApoE-KO mice = test: Aortic sinus lesion area after nasal administration in ApoE-KO mice; assay type: in vivo
Experimental: Nasal Tolerance: Nasal tolerance was induced by intranasal administration of oxidized LDL, β2GPI, β2GPI-derived peptides or HSP65, in a total volume of 10 μl PBS. Intranasal administration was performed on mildly sedated mice (12-16 weeks old), each mouse receiving […] of antigen per dose, in the indicated concentrations, every other day. Atherogenesis was induced by 5 weeks of a Western diet initiated on the day following the last intranasal administration, or assessed (in Apo E KO mice) after 8 weeks on a chow diet. Controls received equal amounts of BSA and/or PBS, as indicated, in an identical regimen. Plasma was obtained for assessment of cholesterol and triglyceride levels from all mice, and the mice were sacrificed for evaluation of atherosclerosis, as described hereinbelow, after 5 weeks Western diet, or (in Apo E KO mice) after 8 weeks on a chow diet.
Assessment of Atherosclerosis: Quantification of atherosclerotic fatty streak lesions was done by calculating the lesion size in the aortic sinus as previously described (16) and by calculating the lesion size in the aorta. Briefly, after perfusion with saline Tris EDTA, the heart and the aorta were removed from the animals and the peripheral fat cleaned carefully. […] Lesion areas per section were scored on a grid (17) by an observer counting unidentified, numbered specimens. […]

B1: Human β2 GPI: human beta2-glycoprotein I (SEQ ID NO: 10) purified from serum (protein)
chain: MISPVLILFSSFLCHVAIAGRTCPKPDDLPFSTVVPLKTFYEPGEEITYSCKPGYVSRGGMRKFICPLTGLWPINTLKCTPRVCPFAGILENGAVRYTTFEYPNTISFSCNTGFYLNGADSAKCTEEGKWSPELPVCAPIICPPPSIPTFATLRVYKPSAGNNSLYRDTAVFECLPQHAMFGNDTITCTTHGNWTKLPECREVKCPFPSRPDNGFVNYPAKPTLYYKDKATFGCHDGYSLDGPEEIECTKLGNWSAMPSCKASCKLPVKKATVVYQGERVKIQEKFKNGMLHGDKVSFFCKNKEKKCSYTEDAQCIDGTIEVPKCFKEHSSLAFWKTDASDVKPC
Aortic sinus lesion (μm^2) (LDL-RD mice): 46250 ± 4486 μm^2
S.I (Stimulation Index) ([1]; nasal 10 μg/mouse every other day for 5 days): 2.1 ± 0.5
S.I (Stimulation Index) ([1]; oral 100 μg/mouse every other day for 5 days): 4.4 ± 0.5
Aortic sinus lesion (μm^2) (ApoE-KO mice; End, nasal 10 μg/mouse, mean ± S.E): 117449 ± 7524 μm^2
reduction of progression of atherosclerotic lesions compared to PBS controls (ApoE-KO mice; nasal 10 μg, 3 doses, then 8 weeks of chow diet): 19%
